T1: Ven-SH3 (Gads, aa.256-322) (mouse, UniProt O89100 256-322)
T1 sequence (looked up): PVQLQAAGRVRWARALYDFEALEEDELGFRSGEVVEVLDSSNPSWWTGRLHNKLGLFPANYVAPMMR


target: T1, Ven-SH3 (Gads, aa.256-322); assay: FRET or BRET

Binder | Kd [µM]
EPPPVDRNLKPDR (peptide, UniProt Q13480 515-527, looked up) [Cer-Gab1, aa.515-527] | 1
NVPQIDRTKKPAV (peptide, UniProt P40818 403-415, looked up) [Cer-USP8, aa.403-415] | 4
PAPSIDRSTKPPL (peptide, UniProt Q13094 231-243, looked up) [Cer-SLP-76, aa.231-243] | 0.8

More lines, in order of falling Kd, values ahead:

Kd [µM] | Binder
24 | PAPSIDRSTRPPL (peptide, UniProt Q13094 231-243, looked up) [Cer-SLP-76 (K240R), aa.231-243]
7 | PAPSIKRSTKPPL (peptide, UniProt Q13094 231-243, looked up) [Cer-SLP-76 (D236K), aa.231-243]

Source: article PMC4814300 (Cell reports, 2016)
